Laboratory results reported in patent US20200323888A1, “INHIBITORS” (VESTLANDETS INNOVASJONSSELSKAP AS, priority 2017, published 2020).
Primed or numbered codes have the meaning given here. Ends that are not written are not given here. Ac′ = acetamide linker; CoA = coenzyme A

Key:
[1] = target: T1, Naa50 (Homo sapiens, UniProt Q9GZZ1); details: NatE/hNaa50; Foyn et al. 2013; cited from earlier work
T1 sequence (Q9GZZ1 1-169): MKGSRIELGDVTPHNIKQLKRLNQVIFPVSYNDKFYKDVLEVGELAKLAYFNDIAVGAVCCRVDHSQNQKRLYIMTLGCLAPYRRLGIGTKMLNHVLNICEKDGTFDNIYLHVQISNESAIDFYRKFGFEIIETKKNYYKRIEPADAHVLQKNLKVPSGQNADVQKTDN

[2] = target: T2, NatA (Homo sapiens, UniProt P41227); details: NatA complex; Foyn et al. 2013; cited from earlier work
T2 construct: endogenous in cells
T2 sequence (P41227 1-235): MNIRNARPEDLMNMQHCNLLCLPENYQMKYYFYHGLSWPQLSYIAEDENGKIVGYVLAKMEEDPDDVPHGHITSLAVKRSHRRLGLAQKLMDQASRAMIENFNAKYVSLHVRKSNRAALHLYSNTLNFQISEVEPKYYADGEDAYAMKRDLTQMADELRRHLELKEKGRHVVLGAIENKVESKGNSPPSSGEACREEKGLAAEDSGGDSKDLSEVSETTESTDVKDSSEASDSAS
T2 sequence (Q9BXJ9 1-866 partner): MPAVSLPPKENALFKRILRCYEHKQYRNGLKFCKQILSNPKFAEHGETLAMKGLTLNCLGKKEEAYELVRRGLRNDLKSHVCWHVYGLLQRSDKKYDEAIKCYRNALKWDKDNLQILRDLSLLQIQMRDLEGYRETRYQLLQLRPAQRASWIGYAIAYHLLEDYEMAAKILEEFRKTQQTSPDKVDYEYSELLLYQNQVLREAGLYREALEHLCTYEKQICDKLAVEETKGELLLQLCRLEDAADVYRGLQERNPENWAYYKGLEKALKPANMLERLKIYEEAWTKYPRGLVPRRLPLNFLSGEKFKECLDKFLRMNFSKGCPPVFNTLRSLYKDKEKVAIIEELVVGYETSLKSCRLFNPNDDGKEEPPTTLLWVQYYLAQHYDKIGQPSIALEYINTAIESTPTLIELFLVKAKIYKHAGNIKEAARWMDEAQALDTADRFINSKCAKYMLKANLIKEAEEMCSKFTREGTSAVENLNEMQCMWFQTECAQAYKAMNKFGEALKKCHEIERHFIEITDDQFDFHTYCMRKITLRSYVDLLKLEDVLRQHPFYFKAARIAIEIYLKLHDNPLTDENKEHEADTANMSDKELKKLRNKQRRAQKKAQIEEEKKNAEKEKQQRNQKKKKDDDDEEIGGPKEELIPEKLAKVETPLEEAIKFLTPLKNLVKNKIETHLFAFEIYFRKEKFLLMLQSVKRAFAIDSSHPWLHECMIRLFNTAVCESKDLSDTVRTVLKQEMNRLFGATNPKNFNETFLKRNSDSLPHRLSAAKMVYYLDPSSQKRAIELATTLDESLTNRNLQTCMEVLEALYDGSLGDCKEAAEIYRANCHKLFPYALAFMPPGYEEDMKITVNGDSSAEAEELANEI

[3] = target: T3, MBP-HishNAA80 fusion protein (MBP-Naa80) (human, UniProt Q93015-2 1-308); experiment: Ki from Nt-acetylation inhibitor assay, panel of human NATs
T3 construct: also called hNAA80/hNAT6; Fus-2/NAT6; not shown: MBP-His tag encoded by the pETM-41 vector
T3 sequence (looked up): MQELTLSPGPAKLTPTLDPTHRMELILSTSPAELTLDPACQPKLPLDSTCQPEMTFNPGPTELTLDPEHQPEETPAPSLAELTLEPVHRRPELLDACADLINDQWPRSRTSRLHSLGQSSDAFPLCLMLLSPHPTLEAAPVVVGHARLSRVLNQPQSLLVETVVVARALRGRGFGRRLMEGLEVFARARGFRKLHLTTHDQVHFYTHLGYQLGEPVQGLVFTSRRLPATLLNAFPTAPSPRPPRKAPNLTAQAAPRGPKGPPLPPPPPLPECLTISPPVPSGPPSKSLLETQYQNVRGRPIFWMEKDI

[4] = target: T4, Naa10 (monomeric) (human, UniProt P41227 1-235, limits assumed); experiment: as above
T4 construct: also called hNaa10; Ard1
T4 sequence (looked up): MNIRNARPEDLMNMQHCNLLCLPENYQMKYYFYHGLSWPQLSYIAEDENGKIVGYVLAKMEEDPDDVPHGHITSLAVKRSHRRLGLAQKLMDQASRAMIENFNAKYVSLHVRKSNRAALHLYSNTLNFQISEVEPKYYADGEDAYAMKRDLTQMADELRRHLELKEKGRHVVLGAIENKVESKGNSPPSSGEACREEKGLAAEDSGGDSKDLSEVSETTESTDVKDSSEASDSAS

[5] = target: T3, MBP-HishNAA80 fusion protein (MBP-Naa80); experiment: cell-based or functional assay
[6] = target: T3, MBP-HishNAA80 fusion protein (MBP-Naa80); experiment: cell-based or functional assay; remark: listed apart in the source

CoA-Ac-MLG7: Previously disclosed bisubstrate analogue inhibitor of NatE/hNaa50 (SEQ ID NO: 49), Foyn 2013 ({CoA-Ac′}-MLGPEGG)
IC50 [1]: 1290 nM

CC(C)(COP(=O)(O)OP(=O)(O)OCC1OC(n2cnc3c(N)ncnc32)C(O)C1OP(=O)(O)O)C(O)C(=O)NCCC(=O)NCCSCC(=O)N[C@@H](CO)C(=O)N[C@@H](CCC(=O)O)C(=O)N[C@@H](CO)C(=O)N[C@@H](CO)C(N)=O (stereo partly shown) [CoA-Ac-SESS]
IC50 [2]: 15.1 µM

B1: CoA-Ac-DDDI-NH2 (peptide)
peptide: {CoA-Ac}-DDDI-NH2
Ki [3]: 43 nM | fold reduced potency for Naa10 compared to Naa80 [4]: 88 fold | IC50 (µM), Nt-acetylation inhibition [5]: 0.38 µM | fold more potent than CoA-Ac-EEEI-NH2 (IC50) [6]: 3 fold | fold more potent than CoA-Ac-MDEL-NH2 (IC50) [6]: 3.3 fold
